This is an account of results in PMC4214742, “Crystal Structure of Human Protein N-Terminal Glutamine Amidohydrolase, an Initial Component of the N-End Rule Pathway” (PLoS ONE, 2014).

The series concerns the molecule itself. The experiment in a line: crystal structure; SAD phasing, 1.5 Å; hanging-drop vapor diffusion at 291 K, 10 mg/ml Se-Met protein, well solution 1% ethylene glycol, 1.8 M ammonium sulfate, 100 mM MES pH 6.0; space group P212121; contact between symmetry-related molecules in the crystal.

B1: human protein N-terminal glutamine amidohydrolase isoform 1 (hNtaq1) (enzyme)
chain: not shown
modifications: Se-Met labeled (selenomethionine in place of methionine)
notes: human N-terminal glutamine amidohydrolase isoform 1, encoded by the C8orf32 gene; 205 amino acids (Ser1 to Cys205), initial Met replaced by Ser after TEV cleavage; 202 residues modeled, Lys203, Asn204 and Cys205 disordered; Cloned by Gateway into pVP16 with N-terminal (His)6-MBP and a TEV site; also called human Ntaq1; not shown: His6, N-terminal, cleaved; MBP, N-terminal, cleaved
For the protein B1, the binding result is “binds”.
